Test results as given in publication PMC7138811.

Target: T1, ASIC1a (human (endogenous in U251 MG, A172, A549)) (UniProt P78348)
T1 sequence: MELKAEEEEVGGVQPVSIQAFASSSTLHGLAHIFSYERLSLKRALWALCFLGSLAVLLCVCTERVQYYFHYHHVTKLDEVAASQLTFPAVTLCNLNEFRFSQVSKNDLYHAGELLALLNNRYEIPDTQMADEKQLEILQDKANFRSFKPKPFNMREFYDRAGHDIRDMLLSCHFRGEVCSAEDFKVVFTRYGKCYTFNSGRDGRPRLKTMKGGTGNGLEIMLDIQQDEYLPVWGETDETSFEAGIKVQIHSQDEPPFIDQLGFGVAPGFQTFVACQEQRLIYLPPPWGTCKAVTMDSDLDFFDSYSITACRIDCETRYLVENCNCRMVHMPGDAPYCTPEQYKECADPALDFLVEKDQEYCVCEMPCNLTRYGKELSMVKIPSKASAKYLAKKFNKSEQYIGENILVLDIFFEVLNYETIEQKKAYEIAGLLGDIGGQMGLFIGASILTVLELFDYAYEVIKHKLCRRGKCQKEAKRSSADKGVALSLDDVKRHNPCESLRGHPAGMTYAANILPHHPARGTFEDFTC

B1: recombinant mambalgin-2 (peptide)
chain: LKCFQHGKVVTCHRDMKFCYHNTGMPFRNLKLILQGCSSSCSETENNKCCSTDRCNK
**Q.** What does the source list for B1?
**A.** growth of A172 glioma cells expressing the ASIC1a subunit, EC50: 10 nM; growth of A549 lung carcinoma cells expressing the ASIC1a subunit, EC50: 8 nM; growth of U251 MG glioma cells expressing the ASIC1a subunit, EC50: 0.9 nM
